Source: IntAct's records for PubMed 11454208

B1: Transcriptional repressor OPI1 (Saccharomyces cerevisiae), P21957 (parent)
chain: MSENQRLGLSEEEVEAAEVLGVLKQSCRQKSQPSEDVSQADKMPASESSTTPLNILDRVSNKIISNVVTFYDEINTNKRPLKSIGRLLDDDDDEHDDYDYNDDEFFTNKRQKLSRAIAKGKDNLKEYKLNMSIESKKRLVTCLHLLKLANKQLSDKISCLQDLVEKEQVHPLHKQDGNARTTTGAGEDETSSDEDDDDEEFFDASEQVNASEQSIVVKMEVVGTVKKVYSLISKFTANSLPEPARSQVRESLLNLPTNWFDSVHSTSLPHHASFHYANCEEQKVEQQQQQQQQQQQQQLLQQQLLQQQQQKRNKDGDDSASPSSSVTANGKVLILAKESLEMVRNVMGVVDSTLGKAEEWVKQKQEVKEMIRERFLQQQQQYRQQQQKDGNYVKPSQDNVDSKD
partner: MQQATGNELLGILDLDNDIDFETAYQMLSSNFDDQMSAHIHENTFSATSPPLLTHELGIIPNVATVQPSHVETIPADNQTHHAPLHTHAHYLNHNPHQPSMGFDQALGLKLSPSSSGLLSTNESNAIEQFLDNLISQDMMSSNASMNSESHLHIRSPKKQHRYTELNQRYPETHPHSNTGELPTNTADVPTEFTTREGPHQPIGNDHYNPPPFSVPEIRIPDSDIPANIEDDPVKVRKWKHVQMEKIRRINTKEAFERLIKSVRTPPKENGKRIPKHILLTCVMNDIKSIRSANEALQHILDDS

Variants of: B1
Conditions: with ino2_yeast INO2, P26798

Row | effect of a mutation on the interaction | Variant
1 | decreasing interaction | L160A
